Patent publication US20040267001A1, “Genes encoding baeyer-villiger monooxygenases” (priority 2001, published 2004)

B1: ORF 15: Rhodococcus erythropolis AN12 ORF 15 chnB monooxygenase, protein SEQ ID NO:36, expressed in E. coli (protein)
chain: MTIVTDLDRDHLRSAVLRGNVPTMLAVLLELTADERWVAPRYQPTRSRGMDDNSTGGLPEEVQSEIRSALIDAVERWWTLDEPSRRTLDSSEVERILNFTCSETVPPDFAPMMAEIVNGPQIKPATAKCDERLHAIVIGAGIAGMLASVELSRAGIPHVILEKNDDVGGSWWENRYPGAGVDTPSHLYSISSFPRNWSTHFGKRDEVQGYLEDFAEANDIRRNVRFRHEVTRAEFEESKQSWRVSVQRPGEASETLEAPILISAVGLLNRPKIPHLPGIETFRGRLFHSAEWPSELDDPESLRGKRVGIVGTGASAMQIGPAIADRVGSLTIFQRSPQWIAPNDDYFTTIDDGVHWLMDNIPGYREWYRARLSWIFNDKVYSSLQVDPDWPEPSASINATNHGHRKFYERYLRDQLGDRTDLIEASLPDYPPFGKRMLLDNGWFTMLRKPDVTLVPHGVDALTPSGLVDTNGVEHQLDVIVMATGFHSVRVLYPMDIVGRSGRSTGEIWGEHDARAYLGITVPDFPNFFVMTGPNTGLGHGGSFITILECQVRYIMDALKLMQSENLGAMECRAEVNDRYNEAVDRQHAQMVWTHPAMENWYRNPDGRVVSVLPWRINDYWAMTYRVDPSDFRTEPARSESVPTPTARG
modifications: Rhodococcus erythropolis AN12
B2: ORF 19: Rhodococcus erythropolis AN12 ORF 19 chnB monooxygenase, protein SEQ ID NO:44, expressed in E. coli (protein)
chain: MTTQKALTTVDAIVIGAGFGGIYAVHKLANELGLTTVGFDKADGPGGTWYWNRYPGALSDTESHVYRFSFDRDLLQDGTWKHTYTTQPEILEYLEDVVSRFDLRRHFHFGTAVESAVYLEDEQLWEVTTDTGEIYRATYVVNAVGLLSAINRPDLPGLETFEGETIHTAAWPEGKDLTGRRVGVIGTGSTGQQVITALAPTVEHLTVFVRTPQYSVPVGKRAVTDEQIDAVKADYENIWTQVKRSSVAFGFEESTVPAMSVSAEERLRVYEEAWEQGGGFRFMFGTFGDIATDEEANETAASFIRSKITAMIEDPETARKLTPTGLFARRPLCDDGYFQVFNRPNVEAVAIKENPIREITAKGVVTEDGVLHKLDVLVLATGFDAVDGNYRRMTISGRGGLNINDHWDGQPTSYLGIATANFPNWFMVLGPNGPFTNLPPSIETQVEWISDTIGYVERTGVRAIEPTPEAESAWTATCTDIANMTVFTKVDSWIFGANVPGKKPSVLFYLGGLGNYRAVLADVTEGGYQGFALKTADTVDA
modifications: Rhodococcus erythropolis AN12

Test: Conversion of cyclohexanone to caprolactone by E. coli clones expressing Rhodococcus erythropolis AN12 monooxygenases, GC-MS detection
Format: cell-based, Escherichia coli
Conditions: 500 mg/L cyclohexanone, 0.1 mM IPTG, overnight at 24° C., GC-MS of ethylacetate extract
Procedure: Following amplification, the gene fragments were cloned into pTrcHis-TOPO TA vectors with either an N-terminal tail or C-terminal tail, as provided by the vector sequence. These vectors were transformed into E. coli, with transformants grown in Luria-Bertani broth supplemented with ampicillin (100 ug/ml).
The chnB monooxygenase activity of each expressed enzyme from Example 9 was tested for activity according to its ability to convert cyclohexanone to caprolactone.
Clones containing the full length monooxygenase genes were transferred from LB agar plate to 5 mL of M63 minimal media (GIBCO) containing 10 mM glycerol, 50 ug/mL ampicillin, 0.1 mM IPTG, and 500 mg/L cyclohexanone. In addition to the clones containing full length monooxygenases, a plasmid without an insert and a “no cell” control were also assayed. The encoded monooxygenase sequences were expressed upon addition of IPTG to the culture media. The cultures were incubated overnight at room temperature (24° C.). Samples (1.25 mL) for analysis were taken immediately after inoculation and after overnight incubation; cells were removed by centrifugation (4° C., 13,000 rpm).
Caprolactone formed by the action of the cloned monooxygenase was extracted from the aqueous phase with ethylacetate (1.0 ml aqueous/0.5 mL ethylacetate). Caprolactone was detected by gas chromotagraphy mass spectrometry (GC-MS) analysis, using an Agilent 6890 Gas chromatograph system.
The analysis of the ethylacetate phase was performed by injecting 1 uL of the ethyl acetate phase into the GC. The inlet temperature was 115° C. and the column temperature profile was 50° C. for 4 min and ramped to 250° C. at 20° C./min, for a total run time of 14 min. The compounds were separated with an Hewlet Packard HP-5MS (5% phenyl Methyl Siloxane) column (30 m length, 250 um diameter, and 0.25 um film thickness). The mass spectrometer was run in Electron Ionization mode. The background mass spectra was subtracted from the spectra at the retention time of caprolactone (9.857 min). Presence of caprolactone was confirmed by comparison of the test reactions to an authentic standard obtained from Aldrich Chemical Company (St. Louis, Mo.).
Results of these assays are shown below in Table 7, in terms of the presence or absence of detectable caprolactone formation according to the activity of each expressed BV monooxygenase enzyme.

Row | Molecule | Formation of Caprolactone (ability to convert cyclohexanone to caprolactone)
1 | B1 | Not Detected
2 | B2 | Detected
